Measurements reported in patent US5891673, “Lck binding protein” (Syntex (U.S.A.) Inc., dated 1999).

B1: GST-LckBP1-#5 (other)
chain: MEAPTTAYKKTTPIEAASSGARGLKAKFESLAEEKRKREEEEKAQQMARQQQERKAVVKMSREVQQ
B2: GST-LckBP1-#8 (other)
chain: AIALYDYQGEGSDELSFDPDDIITDIEMVDEGWWRGQCRGHFGLFPANYVKLL
B3: GST-LckBP1-#4 (other)
chain: MEAPTTAYKKTTPIEAASSGARGLKAKFESLAEEKRKREEEEKAQQMARQQQERKAVVKMSREVQQPSMPVEEPAAPAQLPKKISSEVWPPAESHLPPESQPVRSRREYPVPSLPTRQSPL

Biological target: biotinylated GST (Schistosoma japonicum (Blood fluke), UniProt P08515 = GST, biotinylated (sites not given))
Test: blot of GST-LckBP1 deletion mutants probed with biotinylated GST
From the text: DNA deletion fragments were obtained by PCR, and subcloned into the pGEX-2T vector (FIG. 7). The fusion proteins produced in *E. coli* were subjected to SDS-PAGE, transferred to a nitrocellulose filter, and probed with biotinylated GST or GST-Lck SH3 protein.

Binder | binding result
B1 | no binding
B2 | no binding
B3 | no binding
